Residue numbers refer to the chain shown, from its start.
What was measured:
Assay in all cases: SPR, ratio of KD to KD of WT
FVII(a) variant P251A = target: T1, FVII(a) variant P251A (human, UniProt P08709 61-466)
T1 construct: hFVII alanine variant in cell culture supernatant
T1 sequence: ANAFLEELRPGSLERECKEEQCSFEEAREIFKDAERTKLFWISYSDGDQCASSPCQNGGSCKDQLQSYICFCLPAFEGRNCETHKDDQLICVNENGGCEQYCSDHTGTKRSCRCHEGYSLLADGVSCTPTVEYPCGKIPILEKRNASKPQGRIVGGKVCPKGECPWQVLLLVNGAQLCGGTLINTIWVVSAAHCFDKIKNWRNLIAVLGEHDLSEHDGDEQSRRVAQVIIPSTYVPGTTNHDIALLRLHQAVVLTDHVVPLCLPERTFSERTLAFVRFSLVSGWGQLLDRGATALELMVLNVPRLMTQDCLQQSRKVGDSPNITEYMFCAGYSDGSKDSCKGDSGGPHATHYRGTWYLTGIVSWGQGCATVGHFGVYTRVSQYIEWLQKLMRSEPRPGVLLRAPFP
Description: (§1) The running buffer was prepared by diluting 10-fold the 10×HBS-P buffer (supplied by GE Healthcare) and supplemented with 1 mg/ml BSA and 5 mM CaCl2 to give 10 mM HEPES, 150 mM NaCl, 0.05% v/v Polysorbate 20, pH 7.4, 5 mM CaCl2, 1 mg/ml bovine serum albumin (BSA). […] Regeneration of the chip was achieved using 10 mM HEPES, 150 mM NaCl, 20 mM EDTA, 0.05 v/v Polysorbate 20, pH 7.4. Binding data were analysed according to a 1:1 Kinetic model and steady state analysis using BiaEvaluation 4.1 supplied by the manufacturer (Biacore AB, Uppsala, Sweden). Wherever possible, ka, kd and KD values from 1:1 kinetic fitting model are reported. […] An amino acid residue is considered a hot-spot residue if substitution of that amino acid residue with alanine results in an affinity reduction of ten (10) fold or more relative to the wild type.

FVII(a) variant E116A = target: T2, FVII(a) variant E116A (human, UniProt P08709 61-466)
T2 construct: hFVII alanine variant in cell culture supernatant
T2 sequence: T1 sequence with E116A, A251P
Description: as §1

FVII(a) variant G117A = target: T3, FVII(a) variant G117A (human, UniProt P08709 61-466)
T3 construct: hFVII alanine variant in cell culture supernatant
T3 sequence: T1 sequence with G117A, A251P
Description: as §1

FVII(a) variant E394A = target: T4, FVII(a) variant E394A (human, UniProt P08709 61-466)
T4 construct: hFVII alanine variant in cell culture supernatant
T4 sequence: T1 sequence with A251P, E394A
Description: as §1

FVII(a) variant L120A = target: T5, FVII(a) variant L120A (human, UniProt P08709 61-466)
T5 construct: hFVII alanine variant in cell culture supernatant
T5 sequence: T1 sequence with L120A, A251P
Description: as §1

Fold diff (Variant/WT) (FVII(a) variant P251A): 2.8 fold | Fold diff (Variant/WT) (FVII(a) variant E116A): 1.6 fold | Fold diff (Variant/WT) (FVII(a) variant G117A): 1 fold | Fold diff (Variant/WT) (FVII(a) variant E394A): 2.6 fold | Fold diff (Variant/WT) (FVII(a) variant L120A): 2 fold
B1: mAb0842(OA) (antibody, human IgG4 S228P, kappa)
heavy: QVQLQESGPGLVKPSQTLSLTCTVSGYSISSDSAWSWIRQPPGKGLEWIGYIQYSGSTNYNPSLKSRVTISRDTSKNQFSLKLSSVTAADTAVYYCARSVNYYGNSFAVGYWGQGTLVTVSSASTKGPSVFPLAPCSRSTSESTAALGCLVKDYFPEPVTVSWNSGALTSGVHTFPAVLQSSGLYSLSSVVTVPSSSLGTKTYTCNVDHKPSNTKVDKRVESKYGPPCPPCPAPEFLGGPSVFLFPPKPKDTLMISRTPEVTCVVVDVSQEDPEVQFNWYVDGVEVHNAKTKPREEQFNSTYRVVSVLTVLHQDWLNGKEYKCKVSNKGLPSSIEKTISKAKGQPREPQVYTLPPSQEEMTKNQVSLSCAVKGFYPSDIAVEWESNGQPENNYKTTPPVLDSDGSFFLVSRLTVDKSRWQEGNVFSCSVMHEALHNHYTQKSLSLSLGK
light: EIVLTQSPATLSLSPGERATLSCRASQGISDYLHWYQQKPGEAPRLLIKYTSQPATGIPARFSGSGSGTDFTLTISSLEPEDFAVYYCQNGHSFPLTFGQGTKLEIKRTVAAPSVFIFPPSDEQLKSGTASVVCLLNNFYPREAKVQWKVDNALQSGNSQESVTEQDSKDSTYSLSSTLTLSKADYEKHKVYACEVTHQGLSSPVTKSFNRGEC
chain: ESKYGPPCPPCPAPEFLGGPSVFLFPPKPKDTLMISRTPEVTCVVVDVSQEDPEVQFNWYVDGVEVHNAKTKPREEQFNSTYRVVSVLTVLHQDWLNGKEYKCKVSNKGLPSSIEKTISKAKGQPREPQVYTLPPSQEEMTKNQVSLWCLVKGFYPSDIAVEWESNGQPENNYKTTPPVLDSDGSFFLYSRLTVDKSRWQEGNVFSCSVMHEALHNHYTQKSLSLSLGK
notes: also called monovalent humanized 11F2 antibody; one-armed anti-FVII(a) antibody

Reference: patent US20220064329A1 (Novo Nordisk, published 2022)
